Test results reported in the supplement of paper PMC12764529.
± gives the half width of the 95% confidence interval.

Legend:
[1] = folding stability dG unfold from trypsin proteolysis; higher = more stable
Method in brief: (§1)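 Designed mini-proteins (under 80 residues, no cysteine) in a PA-tagged cDNA display construct were digested with trypsin and chymotrypsin. Each protease was used at 11 concentrations (threefold dilutions) plus a no-protease condition, followed by sequencing. K50 was inferred by Bayesian fitting of sequencing counts, and unfolding free energy was derived against a sequence-predicted unfolded-state K50 and a shared folded-state K50, per protease or combined. Only designs with AlphaFold2 dimer inter-PAE above 15 were kept.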

[2] = folding stability dG unfold from chymotrypsin proteolysis; higher = more stable
Method in brief: as §1

[3] = folding stability dG unfold (combined trypsin and chymotrypsin); higher = more stable
Method in brief: as §1

Row | Sequence | folding stability dG unfold [1] [kcal/mol] | folding stability dG unfold [2] [kcal/mol] | folding stability dG unfold [3] [kcal/mol]
1 | SAGGSAGKNKPFPLPILIEAHPDDPEEAAERLKAELEALFPGPIKVEIVEVDPEKGIITAIVTVDGSAGGSA [r15_1024_TrMRF] | 0.985 ± 0.038 | 1.58 ± 0.073 | 1.31 ± 0.096
2 | SAGGSAGKPVLVRVKLRLEFPGTGELAEAEVVVEADSIEDALDRVLKELTLPDFKAEVLDVKAIPLSAGGSA [r2_320_TrMRF] | 2.1 ± 0.11 | 2.03 ± 0.029 | 2.16 ± 0.13
3 | SAGGSAGMPLVTAPVTRDPNSDVVTLTVYDPRTGETHTYTSPGSVEEAVEAFREATGLPISEVVLESAGGSA [r15_101_JUSTAS] | 1.45 ± 0.078 | 1.44 ± 0.057 | 1.51 ± 0.099
4 | SAGGSAGMPPDEPVVKTTVIPTSTAVKDAAGNPLTPEELAAAVKAAYPDVEVSFGPGNTLTITLTRSAGGSA [r15_645_JUSTAS] | 1.33 ± 0.059 | 1.11 ± 0.05 | 1.25 ± 0.091
5 | SAGGSAGMTITSATEVGTTTFNGGSITHYTLTTPSGKTITGEVDPATGTLTISFPETGLSITIPPKSAGGSA [r15_159_JUSTAS] | 1.09 ± 0.023 | 0.729 ± 0.19 | 1 ± 0.1
6 | SAGGSAGPEITPPVVVVTFTFKFPDGKTIEIPTTDLEEGEKEIEKIKKPLLEKKNIELVKVTTKPVSAGGSA [r15_140_JUSTAS] | -0.607 ± 0.37 | -0.389 ± 0.36 | -0.583 ± 0.36
7 | SAGGSAGPKVEVELFPVPPFAPGSEFVLLVKTEDGDVILQRFRVKLEGNEPKIEPLGSIVLKPDELSAGGSA [r15_636_TrMRF] | 1.08 ± 0.036 | 2.09 ± 0.062 | 1.78 ± 0.1
8 | SAGGSAGPPKPGKIELEFEDPSGGKKYKVDIYIYPNNEVKTKALNPDGTPIPEEEIKKILKKLGLKSAGGSA [r15_872_JUSTAS] | 0.37 ± 0.082 | 1.75 ± 0.12 | 1.29 ± 0.26
9 | SAGGSAGPSVTVDVTFHPGEGTVDVTVTTEGEVVYGKGTFLNPSTVLVEVYFPGSGKVATLTLPVTSAGGSA [r15_837_TrMRF] | 1.87 ± 0.066 | 1.61 ± 0.07 | 1.73 ± 0.052
10 | SAGGSAGRVRVELELEIVVDTPEEARALAEELARRFPSIVRVEVEVRRRPDGRLVVRVRLEVELPPSAGGSA [r15_726_TrROS_Hall] | 3.3 ± 0.061 | 3.32 ± 0.077 | 3.31 ± 0.1
11 | SAGGSAGSFVNLGPEESEGVIVVTYYNEDGTTTTATYTYFPSPKTVSSNGPVTVPPNYKLSVSPLLSAGGSA [r15_198_JUSTAS] | 0.165 ± 0.051 | 1.13 ± 0.054 | 0.818 ± 0.067
12 | SAGGSAGSKPVTINWKITHPDGTPTTIPFSFPTEEQALEEALKAAEALAKEAGYPDFKIEIDEIIPSAGGSA [r15_698_TrMRF] | 0.0851 ± 0.091 | 0.47 ± 0.12 | 0.358 ± 0.091
13 | SAGGSAGSMSPEEVAERIRQEALARDPNWTVEVTPLPGPRPVLRLEIYRVDPNSDSVTPVSTLVVGSAGGSA [r15_682_JUSTAS] | 0.857 ± 0.018 | 0.516 ± 0.075 | 0.77 ± 0.086
14 | SAGGSAIFVVKIEPPNGNPITFMFWFKTPEEAESQVEEIAEQLPPDWKVEVEYIPAEDLKNGKPFFSAGGSA [r15_469_TrROS] | 2.13 ± 0.045 | 2.13 ± 0.043 | 2.2 ± 0.068
15 | SAGGSAIIIPIKSAEEILDQLENNPPGRPIHVWAPDGYWIKIEIDPGKGPKIKITEIYPMPPEEAKSAGGSA [r15_577_TrROS] | 0.741 ± 0.026 | 0.984 ± 0.062 | 0.896 ± 0.09
16 | SAGGSAIKIIPNGDGIYIKIWFNNQPHPIPIESPEDAEEQVKSILDKFQKRNGMDIPEDMKVEIYPSAGGSA [r15_496_TrROS] | 0.419 ± 0.054 | 1.12 ± 0.14 | 0.994 ± 0.2
17 | SAGGSAIKLPPGEEYTIIMRNPQNGRPFKVPIKRVDPGQIQIEIENPKNGEKQKFTIPANDIEIVKSAGGSA [r15_381_TrROS] | 0.0718 ± 0.074 | -0.896 ± 0.8 | -0.194 ± 0.16
18 | SAGGSAIKLPPGVKIEYHMHPDGYMTITIEYPNGRPIEIPMRMDPNGPREMTPDQIRDFIKELLKNSAGGSA [r15_780_TrROS] | 2.42 ± 0.038 | 2.33 ± 0.026 | 2.4 ± 0.049
